Assay results: paper PMC9958556, “Genomic Distribution of Pro-Virulent cpdB-like Genes in Eubacteria and Comparison of the Enzyme Specificity of CpdB-like Proteins from Salmonella enterica, Escherichia coli and Streptococcus suis” (International Journal of Molecular Sciences, 2023)

What was measured:
SntA = test system: T1, SntA; assay: HPLC at […] nm of […]'-AMP formed, initial rates, Michaelis-Menten fit; assay type: biochemical, Streptococcus suis; conditions: 50 mM Tris-HCl pH 7.5, 2 mM MnCl2, 0.1 mg/mL BSA, 37 °C; read-out: K m ^1 /
T1 construct: cell wall-attached protein of 813 residues; preparation from earlier work [10]

[1] = test system: Nc1ncnc2c1ncn2[C@@H]1O[C@H](CO)[C@@H](OP(=O)(O)O)[C@H]1O; assay: purified protein; conditions: 50 mM Tris-HCl pH 7.5, 2 mM MnCl2, 0.1 mg/mL BSA, 37 °C
Description: (§1) colorimetric phosphate release, initial rates, Michaelis-Menten fit on S. enterica CpdB

[2] = test system: Nc1nc2c(ncn2[C@@H]2O[C@@H]3COP(=O)(O)O[C@H]4[C@@H](O)[C@H](n5cnc6c(N)ncnc65)O[C@@H]4COP(=O)(O)O[C@H]3[C@H]2O)c(=O)[nH]1; assay: purified protein; conditions: 50 mM Tris-HCl pH 7.5, 2 mM MnCl2, 0.1 mg/mL BSA, 37 °C
[3] = test system: Nc1ncnc2c1ncn2[C@@H]1O[C@H](COP(=O)(O)OP(=O)(O)O)[C@@H](O)[C@H]1O; assay: purified protein; conditions: 50 mM Tris-HCl pH 7.5, 2 mM MnCl2, 0.1 mg/mL BSA, 37 °C
Description: as §1

[4] = test system: Nc1ncnc2c1ncn2[C@@H]1O[C@@H]2COP(=O)(O)O[C@H]3[C@@H](O)[C@H](n4cnc5c(N)ncnc54)O[C@@H]3COP(=O)(O)O[C@H]3[C@@H](O)[C@H](n4cnc5c(N)ncnc54)O[C@@H]3COP(=O)(O)O[C@H]3[C@@H](O)[C@H](n4cnc5c(N)ncnc54)O[C@@H]3COP(=O)(O)O[C@H]3[C@@H](O)[C@H](n4cnc5c(N)ncnc54)O[C@@H]3COP(=O)(O)O[C@H]3[C@@H](O)[C@H](n4cnc5c(N)ncnc54)O[C@@H]3COP(=O)(O)O[C@H]2[C@H]1O; assay: purified protein; conditions: 50 mM Tris-HCl pH 7.5, 2 mM MnCl2, 0.1 mg/mL BSA, 37 °C
[5] = test system: Nc1ccn([C@@H]2O[C@H](CO)[C@H]3OP(=O)(O)O[C@H]32)c(=O)n1; assay: purified protein; conditions: 50 mM Tris-HCl pH 7.5, 2 mM MnCl2, 0.1 mg/mL BSA, 37 °C, excess alkaline phosphatase
Description: (§2) coupled alkaline phosphatase, colorimetric phosphate release, initial rates, Michaelis-Menten fit on S. enterica CpdB

[6] = test system: O=c1ccn([C@@H]2O[C@H](CO)[C@@H](OP(=O)(O)O)[C@H]2O)c(=O)[nH]1; assay: purified protein; conditions: 50 mM Tris-HCl pH 7.5, 2 mM MnCl2, 0.1 mg/mL BSA, 37 °C
Description: as §1

[7] = test system: O=[N+]([O-])c1ccc(OP(=O)(O)Oc2ccc([N+](=O)[O-])cc2)cc1; assay: purified protein; conditions: 50 mM Tris-HCl pH 7.5, 2 mM MnCl2, 0.1 mg/mL BSA, 37 °C, excess alkaline phosphatase
Description: as §2

[8] = test system: Nc1ncnc2c1ncn2[C@@H]1O[C@H](COP(=O)(O)OP(=O)(O)OP(=O)(O)OC[C@H]2O[C@@H](n3cnc4c(N)ncnc43)[C@H](O)[C@@H]2O)[C@@H](O)[C@H]1O; assay: purified protein; conditions: 50 mM Tris-HCl pH 7.5, 2 mM MnCl2, 0.1 mg/mL BSA, 37 °C, excess alkaline phosphatase
Description: as §2

[9] = test system: Nc1ncnc2c1ncn2[C@@H]1O[C@@H]2COP(=O)(O)O[C@H]3[C@@H](O)[C@H](n4cnc5c(N)ncnc54)O[C@@H]3COP(=O)(O)O[C@H]3[C@@H](O)[C@H](n4cnc5c(N)ncnc54)O[C@@H]3COP(=O)(O)O[C@H]3[C@@H](O)[C@H](n4cnc5c(N)ncnc54)O[C@@H]3COP(=O)(O)O[C@H]2[C@H]1O; assay: purified protein; conditions: 50 mM Tris-HCl pH 7.5, 2 mM MnCl2, 0.1 mg/mL BSA, 37 °C
[10] = test system: Nc1ncnc2c1ncn2[C@@H]1O[C@H](COP(=O)(O)OP(=O)(O)OP(=O)(O)OP(=O)(O)OC[C@H]2O[C@@H](n3cnc4c(N)ncnc43)[C@H](O)[C@@H]2O)[C@@H](O)[C@H]1O; assay: purified protein; conditions: 50 mM Tris-HCl pH 7.5, 2 mM MnCl2, 0.1 mg/mL BSA, 37 °C, excess alkaline phosphatase
Description: as §2

[11] = test system: O=c1ccn([C@@H]2O[C@H](CO)[C@H]3OP(=O)(O)O[C@H]32)c(=O)[nH]1; assay: purified protein; conditions: 50 mM Tris-HCl pH 7.5, 2 mM MnCl2, 0.1 mg/mL BSA, 37 °C, excess alkaline phosphatase
Description: as §2

[12] = test system: Nc1nc2c(ncn2[C@@H]2O[C@H](CO)[C@@H](OP(=O)(O)O)[C@H]2O)c(=O)[nH]1; assay: purified protein; conditions: 50 mM Tris-HCl pH 7.5, 2 mM MnCl2, 0.1 mg/mL BSA, 37 °C
Description: as §1

[13] = test system: Nc1ncnc2c1ncn2[C@@H]1O[C@H](CO)[C@H]2OP(=O)(O)O[C@H]21; assay: purified protein; conditions: 50 mM Tris-HCl pH 7.5, 2 mM MnCl2, 0.1 mg/mL BSA, 37 °C, excess alkaline phosphatase
Description: as §2

[14] = test system: Nc1nc2c(ncn2[C@@H]2O[C@H](CO)[C@H]3OP(=O)(O)O[C@H]32)c(=O)[nH]1; assay: purified protein; conditions: 50 mM Tris-HCl pH 7.5, 2 mM MnCl2, 0.1 mg/mL BSA, 37 °C, excess alkaline phosphatase
Description: as §2

[15] = test system: Nc1nc2c(ncn2[C@@H]2O[C@@H]3CO[P@](=O)(O)O[C@H]4[C@@H](O)[C@H](n5cnc6c(=O)[nH]c(N)nc65)O[C@@H]4CO[P@](=O)(O)O[C@H]3[C@H]2O)c(=O)[nH]1; assay: purified protein; conditions: 50 mM Tris-HCl pH 7.5, 2 mM MnCl2, 0.1 mg/mL BSA, 37 °C
[16] = test system: [H][C@@]1(O)[C@]2([H])OP(=O)(O)OC[C@@]3([H])O[C@@]([H])(n4cnc5c(N)ncnc54)[C@]([H])(O)[C@]3([H])OP(=O)(O)OC[C@@]2([H])O[C@@]1([H])n1cnc2c(N)ncnc21; assay: purified protein; conditions: 50 mM Tris-HCl pH 7.5, 2 mM MnCl2, 0.1 mg/mL BSA, 37 °C
[17] = test system: Nc1ncnc2c1ncn2[C@@H]1O[C@H](COP(=O)(O)O[C@H]2[C@@H](O)[C@H](n3cnc4c(N)ncnc43)O[C@@H]2COP(=O)(O)O)[C@@H](O)[C@H]1O; assay: purified protein; conditions: 50 mM Tris-HCl pH 7.5, 2 mM MnCl2, 0.1 mg/mL BSA, 37 °C

Nc1ncnc2c1ncn2[C@@H]1O[C@@H]2COP(=O)(O)O[C@H]3[C@@H](O)[C@H](n4cnc5c(N)ncnc54)O[C@@H]3COP(=O)(O)O[C@H]3[C@@H](O)[C@H](n4cnc5c(N)ncnc54)O[C@@H]3COP(=O)(O)O[C@H]3[C@@H](O)[C@H](n4cnc5c(N)ncnc54)O[C@@H]3COP(=O)(O)O[C@H]3[C@@H](O)[C@H](n4cnc5c(N)ncnc54)O[C@@H]3COP(=O)(O)O[C@H]3[C@@H](O)[C@H](n4cnc5c(N)ncnc54)O[C@@H]3COP(=O)(O)O[C@H]2[C@H]1O [c-hexa-AMP]
Km (SntA): 2.63 ± 0.88 µM

Nc1ncnc2c1ncn2[C@@H]1O[C@@H]2COP(=O)(O)O[C@H]3[C@@H](O)[C@H](n4cnc5c(N)ncnc54)O[C@@H]3COP(=O)(O)O[C@H]3[C@@H](O)[C@H](n4cnc5c(N)ncnc54)O[C@@H]3COP(=O)(O)O[C@H]3[C@@H](O)[C@H](n4cnc5c(N)ncnc54)O[C@@H]3COP(=O)(O)O[C@H]2[C@H]1O [c-tetra-AMP]
Km (SntA): 262 ± 62.1 µM

S. enterica CpdB (Salmonella enterica subsp. enterica serovar Typhimurium str. LT2)
Km [1]: 6.53 ± 1.16 µM | kcat [1]: 172 ± 41.3 s⁻¹ | kcat/Km [1]: 2.76e+07 M⁻¹ s⁻¹ | Km [2]: 2.13 ± 0.32 µM | kcat [2]: 0.3 ± 0.03 s⁻¹ | kcat/Km [2]: 197000 M⁻¹ s⁻¹ | Km [3]: 28.09 ± 1.82 µM | kcat [3]: 2.83 ± 0.19 s⁻¹ | kcat/Km [3]: 101000 M⁻¹ s⁻¹ | Km [4]: 24.24 ± 7.60 µM | kcat [4]: 0.006 ± 0.001 s⁻¹ | kcat/Km [4]: 238 M⁻¹ s⁻¹ | Km [5]: 4.52 ± 0.69 µM | kcat [5]: 146 ± 9.39 s⁻¹ | kcat/Km [5]: 3.32e+07 M⁻¹ s⁻¹ | Km [6]: 4.54 ± 0.53 µM | kcat [6]: 155 ± 13.3 s⁻¹ | kcat/Km [6]: 3.42e+07 M⁻¹ s⁻¹ | Km [7]: 33.74 ± 4.77 µM | kcat [7]: 250 ± 9.82 s⁻¹ | kcat/Km [7]: 7.53e+06 M⁻¹ s⁻¹ | Km [8]: 69.09 ± 19.31 µM | kcat [8]: 2.1 ± 0.17 s⁻¹ | kcat/Km [8]: 31600 M⁻¹ s⁻¹ | Km [9]: 18.44 ± 4.95 µM | kcat [9]: 0.042 ± 0.001 s⁻¹ | kcat/Km [9]: 2370 M⁻¹ s⁻¹ | Km [10]: 49.21 ± 12.46 µM | kcat [10]: 2.64 ± 0.24 s⁻¹ | kcat/Km [10]: 55000 M⁻¹ s⁻¹ | Km [11]: 22.65 ± 2.56 µM | kcat [11]: 324 ± 21.8 s⁻¹ | kcat/Km [11]: 1.44e+07 M⁻¹ s⁻¹ | Km [12]: 4.66 ± 1.34 µM | kcat [12]: 219 ± 48.7 s⁻¹ | kcat/Km [12]: 5.23e+07 M⁻¹ s⁻¹ | Km [13]: 14.41 ± 3.68 µM | kcat [13]: 209 ± 16.9 s⁻¹ | kcat/Km [13]: 1.53e+07 M⁻¹ s⁻¹ | Km [14]: 7.52 ± 1.46 µM | kcat [14]: 120 ± 4.74 s⁻¹ | kcat/Km [14]: 1.63e+07 M⁻¹ s⁻¹ | Km [15]: 4.12 ± 0.98 µM | kcat [15]: 0.09 ± 0.01 s⁻¹ | kcat/Km [15]: 22400 M⁻¹ s⁻¹ | Km [16]: 8.89 ± 2.31 µM | kcat [16]: 0.31 ± 0.06 s⁻¹ | kcat/Km [16]: 35500 M⁻¹ s⁻¹ | Km [17]: 0.22 ± 0.12 µM | kcat [17]: 2.85 ± 1.04 s⁻¹ | kcat/Km [17]: 1.39e+07 M⁻¹ s⁻¹
